Columns and labels:
5HT3a = molecular target: T1, 5HT3a (Homo sapiens, UniProt P46098); assay: Ion channel panel (IonWorks Barracuda): 5HT3a; assay type: cell-based
T1 construct: host or cells: HEK293 or CHO
T1 sequence (P46098 whole entry, looked up): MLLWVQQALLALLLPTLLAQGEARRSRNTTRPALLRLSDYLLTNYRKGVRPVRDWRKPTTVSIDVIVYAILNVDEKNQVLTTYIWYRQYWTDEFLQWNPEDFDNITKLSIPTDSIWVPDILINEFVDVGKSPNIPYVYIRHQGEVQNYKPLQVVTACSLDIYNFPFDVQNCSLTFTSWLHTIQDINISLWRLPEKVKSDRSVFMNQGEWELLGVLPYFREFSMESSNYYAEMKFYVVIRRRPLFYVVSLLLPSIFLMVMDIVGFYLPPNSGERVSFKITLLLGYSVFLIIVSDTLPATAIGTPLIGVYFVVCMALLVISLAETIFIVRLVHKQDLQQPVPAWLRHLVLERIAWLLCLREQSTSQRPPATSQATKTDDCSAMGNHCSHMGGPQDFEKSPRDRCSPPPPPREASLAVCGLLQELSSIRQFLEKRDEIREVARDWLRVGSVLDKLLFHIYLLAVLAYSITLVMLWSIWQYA
In short: (§1)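 Peptides were tested in duplicate at final 20 μM and 200 nM, with concentration set by amino acid analysis, in HEPES-buffered saline. They were applied for at least 5 min to HEK293 or CHO cells transfected with each channel. Currents were expressed as % inhibition, 1-(Ipeptide/Icontrol)×100, or % activation, Ipeptide/Icontrol×100, against a channel-matched reference compound.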

α3β4 = molecular target: T2, α3β4 (Homo sapiens, UniProt P30926+P32297); assay: Ion channel panel (IonWorks Barracuda): α3β4; assay type: cell-based; settings: 100% = no change, <100% = inhibition
T2 construct: host or cells: HEK293 or CHO
In short: as §1

α4β2 = molecular target: T3, α4β2 (Homo sapiens, UniProt P17787+P43681); assay: Ion channel panel (IonWorks Barracuda): α4β2; assay type: cell-based; settings: 100% = no change, <100% = inhibition
T3 construct: host or cells: HEK293 or CHO
In short: as §1

Cav2.1 = molecular target: T4, Cav2.1 (Homo sapiens, UniProt O00555); assay: cell-based; settings: 100% = no change, <100% = inhibition
T4 construct: host or cells: HEK293 or CHO
In short: as §1

Cav2.2 = molecular target: T5, Cav2.2 (Homo sapiens, UniProt Q00975); assay: cell-based; settings: 100% = no change, <100% = inhibition
T5 construct: host or cells: HEK293 or CHO
In short: as §1

Kv2.1 = molecular target: T6, Kv2.1 (Homo sapiens, UniProt Q14721); assay: cell-based; settings: 100% = no change, <100% = inhibition
T6 construct: host or cells: HEK293 or CHO
In short: as §1

GABA = assay: Ion channel panel (IonWorks Barracuda): GABA; assay type: cell-based; settings: 100% = no change, <100% = inhibition
In short: as §1

Nav1.5 = Nav1.5 (Homo sapiens, UniProt Q14524); assay: in vitro; settings: 100% = no change; for Activity of Nav1.5 with peptide, expressed as a percentage of the reference compound: peptide at 0.2 μM; for Activity of Nav1.5 with peptide (percentage of the reference compound): peptide at 20 μM
Sequence of Nav1.5 (Q14524 whole entry): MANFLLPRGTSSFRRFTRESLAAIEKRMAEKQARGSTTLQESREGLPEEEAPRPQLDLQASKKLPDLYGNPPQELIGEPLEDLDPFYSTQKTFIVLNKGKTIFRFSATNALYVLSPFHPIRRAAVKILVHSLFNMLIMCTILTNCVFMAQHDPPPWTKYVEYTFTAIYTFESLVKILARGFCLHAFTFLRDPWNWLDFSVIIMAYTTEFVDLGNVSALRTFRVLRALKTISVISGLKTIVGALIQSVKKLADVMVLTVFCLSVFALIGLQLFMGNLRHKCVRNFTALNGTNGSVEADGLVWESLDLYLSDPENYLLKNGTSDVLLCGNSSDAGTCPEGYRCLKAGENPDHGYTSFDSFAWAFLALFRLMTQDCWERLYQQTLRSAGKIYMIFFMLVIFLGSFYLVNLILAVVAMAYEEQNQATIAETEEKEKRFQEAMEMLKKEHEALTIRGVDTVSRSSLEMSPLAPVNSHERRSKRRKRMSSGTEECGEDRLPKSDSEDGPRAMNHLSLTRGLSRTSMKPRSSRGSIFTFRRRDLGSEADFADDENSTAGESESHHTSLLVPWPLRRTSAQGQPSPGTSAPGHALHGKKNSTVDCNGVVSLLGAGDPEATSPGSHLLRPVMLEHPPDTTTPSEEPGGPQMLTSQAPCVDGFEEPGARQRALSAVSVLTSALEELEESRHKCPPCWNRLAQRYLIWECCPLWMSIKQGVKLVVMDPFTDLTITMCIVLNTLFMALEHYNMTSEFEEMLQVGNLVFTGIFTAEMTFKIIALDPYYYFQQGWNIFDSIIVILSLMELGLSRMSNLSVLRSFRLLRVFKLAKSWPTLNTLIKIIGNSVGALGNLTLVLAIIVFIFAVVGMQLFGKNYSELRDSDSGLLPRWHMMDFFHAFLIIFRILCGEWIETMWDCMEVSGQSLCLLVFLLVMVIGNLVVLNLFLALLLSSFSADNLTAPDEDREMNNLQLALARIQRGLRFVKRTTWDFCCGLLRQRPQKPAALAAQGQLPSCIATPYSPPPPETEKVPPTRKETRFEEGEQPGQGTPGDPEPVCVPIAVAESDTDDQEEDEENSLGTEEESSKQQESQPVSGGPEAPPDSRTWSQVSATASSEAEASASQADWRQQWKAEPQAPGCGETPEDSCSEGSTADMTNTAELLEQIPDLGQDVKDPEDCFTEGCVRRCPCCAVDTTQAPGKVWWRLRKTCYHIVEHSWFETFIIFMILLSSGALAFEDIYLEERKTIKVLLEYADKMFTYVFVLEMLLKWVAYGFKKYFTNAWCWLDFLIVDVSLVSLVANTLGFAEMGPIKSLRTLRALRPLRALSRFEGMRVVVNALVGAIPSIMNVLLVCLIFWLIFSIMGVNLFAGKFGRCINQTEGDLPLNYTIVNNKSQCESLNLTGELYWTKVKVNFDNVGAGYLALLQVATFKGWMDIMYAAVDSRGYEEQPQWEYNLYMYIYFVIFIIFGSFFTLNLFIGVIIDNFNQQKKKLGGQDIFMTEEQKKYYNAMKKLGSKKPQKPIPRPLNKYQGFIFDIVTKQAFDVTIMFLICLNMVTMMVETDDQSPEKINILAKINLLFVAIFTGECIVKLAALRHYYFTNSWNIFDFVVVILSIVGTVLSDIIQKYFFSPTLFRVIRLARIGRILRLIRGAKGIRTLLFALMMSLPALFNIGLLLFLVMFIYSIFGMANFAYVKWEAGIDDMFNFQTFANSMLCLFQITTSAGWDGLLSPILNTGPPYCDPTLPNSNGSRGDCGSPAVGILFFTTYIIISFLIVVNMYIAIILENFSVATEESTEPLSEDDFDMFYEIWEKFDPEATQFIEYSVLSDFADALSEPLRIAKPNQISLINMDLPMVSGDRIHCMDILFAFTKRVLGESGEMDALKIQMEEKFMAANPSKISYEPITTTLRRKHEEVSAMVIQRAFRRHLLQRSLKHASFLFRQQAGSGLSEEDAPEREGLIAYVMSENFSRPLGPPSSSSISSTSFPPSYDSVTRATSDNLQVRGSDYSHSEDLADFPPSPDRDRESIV
In short: as §1

hERG = hERG (Homo sapiens, UniProt Q12809); assay: in vitro; settings: 100% = no change, <100% = inhibition
In short: as §1

Kir2.1 = molecular target: T7, Kir2.1 (Homo sapiens, UniProt P63252); assay: Ion channel panel (IonWorks Barracuda): Kir2.1; assay type: cell-based; settings: 100% = no change, <100% = inhibition
T7 construct: host or cells: HEK293 or CHO
In short: as §1

Kv1.1 = molecular target: T8, Kv1.1 (Homo sapiens, UniProt Q09470); assay: cell-based; assay type: cell-based; settings: 100% = no change, <100% = inhibition
T8 construct: host or cells: HEK293 or CHO
In short: as §1

Kv1.2 = molecular target: T9, Kv1.2 (Homo sapiens, UniProt P16389); assay: cell-based; assay type: cell-based; settings: 100% = no change, <100% = inhibition
T9 construct: host or cells: HEK293 or CHO
In short: as §1

Kv1.3 = molecular target: T10, Kv1.3 (Homo sapiens, UniProt P22001); assay: cell-based; assay type: cell-based; settings: 100% = no change, <100% = inhibition
T10 construct: host or cells: HEK293 or CHO
In short: as §1

Nav1.7 = molecular target: T11, Nav1.7 (Homo sapiens, UniProt Q15858); assay: cell-based; assay type: cell-based; settings: 100% = no change; for Activity of Nav1.7 with peptide, expressed as a percentage of the reference compound: peptide at 0.2 μM; for Activity of Nav1.7 with peptide (percentage of the reference compound): peptide at 20 μM
T11 construct: host or cells: HEK293 or CHO
T11 sequence (Q15858 whole entry): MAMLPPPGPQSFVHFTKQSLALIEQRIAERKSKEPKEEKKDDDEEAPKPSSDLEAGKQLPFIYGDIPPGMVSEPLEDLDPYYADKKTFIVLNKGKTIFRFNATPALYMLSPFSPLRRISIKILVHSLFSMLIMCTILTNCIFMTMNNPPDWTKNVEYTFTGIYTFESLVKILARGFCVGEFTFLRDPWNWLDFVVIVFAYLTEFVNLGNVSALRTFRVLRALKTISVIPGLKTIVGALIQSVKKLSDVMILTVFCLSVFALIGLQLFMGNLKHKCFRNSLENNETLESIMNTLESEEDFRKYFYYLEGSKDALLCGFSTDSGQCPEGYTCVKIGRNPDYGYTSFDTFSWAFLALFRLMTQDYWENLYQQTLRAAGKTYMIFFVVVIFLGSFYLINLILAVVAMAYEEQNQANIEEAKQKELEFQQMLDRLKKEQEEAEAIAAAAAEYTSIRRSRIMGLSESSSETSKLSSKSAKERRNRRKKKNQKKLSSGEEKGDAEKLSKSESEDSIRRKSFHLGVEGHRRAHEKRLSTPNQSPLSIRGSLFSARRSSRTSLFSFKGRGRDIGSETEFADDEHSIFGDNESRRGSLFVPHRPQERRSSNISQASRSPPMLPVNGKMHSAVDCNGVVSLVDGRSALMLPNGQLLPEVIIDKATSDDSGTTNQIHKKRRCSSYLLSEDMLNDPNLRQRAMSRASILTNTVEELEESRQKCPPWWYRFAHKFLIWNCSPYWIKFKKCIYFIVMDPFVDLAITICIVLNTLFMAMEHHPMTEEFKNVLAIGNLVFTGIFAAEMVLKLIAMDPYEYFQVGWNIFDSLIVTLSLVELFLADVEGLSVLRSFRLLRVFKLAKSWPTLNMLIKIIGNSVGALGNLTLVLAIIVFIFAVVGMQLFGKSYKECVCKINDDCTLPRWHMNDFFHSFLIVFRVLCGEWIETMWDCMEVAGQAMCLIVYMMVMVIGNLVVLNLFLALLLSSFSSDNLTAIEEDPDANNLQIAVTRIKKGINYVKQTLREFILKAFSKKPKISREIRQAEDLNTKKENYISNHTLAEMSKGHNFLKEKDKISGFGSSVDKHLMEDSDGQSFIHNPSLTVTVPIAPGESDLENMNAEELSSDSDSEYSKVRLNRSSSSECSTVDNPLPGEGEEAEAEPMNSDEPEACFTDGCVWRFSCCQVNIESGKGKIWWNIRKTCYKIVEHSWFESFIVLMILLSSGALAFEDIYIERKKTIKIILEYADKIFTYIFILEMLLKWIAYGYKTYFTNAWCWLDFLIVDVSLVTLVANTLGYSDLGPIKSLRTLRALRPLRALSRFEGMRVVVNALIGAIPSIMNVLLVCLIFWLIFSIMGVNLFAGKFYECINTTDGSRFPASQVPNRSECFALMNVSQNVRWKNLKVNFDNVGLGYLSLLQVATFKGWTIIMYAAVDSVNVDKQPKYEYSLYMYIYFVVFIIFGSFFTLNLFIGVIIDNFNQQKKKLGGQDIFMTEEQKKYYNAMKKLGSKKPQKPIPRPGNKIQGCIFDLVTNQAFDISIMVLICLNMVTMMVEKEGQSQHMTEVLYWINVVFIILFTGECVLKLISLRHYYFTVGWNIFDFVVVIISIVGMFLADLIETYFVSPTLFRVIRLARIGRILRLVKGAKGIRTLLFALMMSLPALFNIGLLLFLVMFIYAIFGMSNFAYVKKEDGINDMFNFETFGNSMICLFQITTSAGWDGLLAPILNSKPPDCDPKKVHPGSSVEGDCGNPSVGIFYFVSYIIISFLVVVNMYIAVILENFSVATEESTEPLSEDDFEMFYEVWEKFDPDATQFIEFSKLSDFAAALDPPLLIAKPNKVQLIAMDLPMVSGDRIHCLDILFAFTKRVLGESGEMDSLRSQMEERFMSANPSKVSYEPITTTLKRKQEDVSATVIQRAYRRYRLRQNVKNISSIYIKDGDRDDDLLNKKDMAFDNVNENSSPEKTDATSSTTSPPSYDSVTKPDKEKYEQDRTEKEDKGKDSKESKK

NR2A = molecular target: T12, NR2A (Homo sapiens, UniProt Q12879); assay: Ion channel panel (IonWorks Barracuda): NR2A; assay type: cell-based; settings: 100% = no change, <100% = inhibition
T12 construct: host or cells: HEK293 or CHO
In short: as §1

NR2B = molecular target: T13, NR2B (Homo sapiens, UniProt Q13224); assay: Ion channel panel (IonWorks Barracuda): NR2B; assay type: cell-based; settings: 100% = no change, <100% = inhibition
T13 construct: host or cells: HEK293 or CHO
In short: as §1

TRPA1 = molecular target: T14, TRPA1 (Homo sapiens, UniProt O75762); assay: Ion channel panel (IonWorks Barracuda): TRPA1; assay type: cell-based; settings: 100% = no change, <100% = inhibition
T14 construct: host or cells: HEK293 or CHO
T14 sequence (O75762 whole entry): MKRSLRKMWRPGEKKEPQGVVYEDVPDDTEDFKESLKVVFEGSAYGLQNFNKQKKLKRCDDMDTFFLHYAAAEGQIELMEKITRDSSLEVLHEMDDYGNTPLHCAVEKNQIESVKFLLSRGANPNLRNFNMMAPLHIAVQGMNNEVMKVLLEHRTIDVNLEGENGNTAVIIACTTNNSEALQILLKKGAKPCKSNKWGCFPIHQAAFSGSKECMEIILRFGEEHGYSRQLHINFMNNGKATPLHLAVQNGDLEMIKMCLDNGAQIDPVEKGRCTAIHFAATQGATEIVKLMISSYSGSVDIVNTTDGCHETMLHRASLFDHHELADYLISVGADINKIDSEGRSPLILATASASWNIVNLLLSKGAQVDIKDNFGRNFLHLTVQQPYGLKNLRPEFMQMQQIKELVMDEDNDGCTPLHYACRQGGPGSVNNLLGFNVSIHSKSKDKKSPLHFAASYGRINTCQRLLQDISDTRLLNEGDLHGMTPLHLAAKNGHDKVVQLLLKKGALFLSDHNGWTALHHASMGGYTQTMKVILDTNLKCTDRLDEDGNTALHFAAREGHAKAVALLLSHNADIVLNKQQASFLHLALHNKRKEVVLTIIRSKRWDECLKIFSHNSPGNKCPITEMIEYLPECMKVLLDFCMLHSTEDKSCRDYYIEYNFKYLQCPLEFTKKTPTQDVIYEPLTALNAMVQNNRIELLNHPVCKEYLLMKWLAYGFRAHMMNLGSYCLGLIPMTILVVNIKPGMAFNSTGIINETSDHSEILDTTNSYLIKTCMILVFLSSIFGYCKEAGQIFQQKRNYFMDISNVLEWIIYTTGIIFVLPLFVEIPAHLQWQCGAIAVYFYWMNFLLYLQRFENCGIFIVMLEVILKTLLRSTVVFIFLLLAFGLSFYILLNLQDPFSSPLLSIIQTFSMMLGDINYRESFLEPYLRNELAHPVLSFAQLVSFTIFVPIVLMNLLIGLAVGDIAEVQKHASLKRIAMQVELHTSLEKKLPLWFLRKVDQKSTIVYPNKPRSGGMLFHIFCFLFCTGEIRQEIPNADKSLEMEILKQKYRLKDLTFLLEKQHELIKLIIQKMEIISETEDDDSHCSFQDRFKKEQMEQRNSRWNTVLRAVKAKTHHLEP
In short: as §1

TRPV1 = molecular target: T15, TRPV1 (Homo sapiens, UniProt Q8NER1); assay: Ion channel panel (IonWorks Barracuda): TRPV1; assay type: cell-based; settings: 100% = no change, <100% = inhibition
T15 construct: host or cells: HEK293 or CHO
In short: as §1

[1] = first of two Nav1.5 columns (probably TP1)
[2] = second of two Nav1.5 columns (probably TP2)
[3] = first of two Nav1.7 columns (probably TP1)
[4] = second of two Nav1.7 columns (probably TP2)

9 (GSGCFGYKCDYYKGCCSGYVCSPTWKWCVRPGPGR) [compound 9]
Activity of 5HT3a with peptide (percentage of the reference compound) (5HT3a): 73%
Activity of 5HT3a with peptide, expressed as a percentage of the reference compound (5HT3a): 107%
Activity of a3b4 with peptide, expressed as a percentage of the reference compound (α3β4; peptide at 0.2 μM): 105%
Activity of a3b4 with peptide (percentage of the reference compound) (α3β4; peptide at 20 μM): 103%
Activity of a4b2 with peptide, expressed as a percentage of the reference compound (α4β2; peptide at 0.2 μM): 96%
Activity of a4b2 with peptide (percentage of the reference compound) (α4β2; peptide at 20 μM): 81%
Activity of Cav2.1 with peptide, expressed as a percentage of the reference compound (Cav2.1; peptide at 0.2 μM): 111%
Activity of Cav2.1 with peptide (percentage of the reference compound) (Cav2.1; peptide at 20 μM): 108%
Activity of Cav2.2 with peptide, expressed as a percentage of the reference compound (Cav2.2; peptide at 0.2 μM): 109%
Activity of Cav2.2 with peptide (percentage of the reference compound) (Cav2.2; peptide at 20 μM): 102%
Activity of Kv2.1 with peptide, expressed as a percentage of the reference compound (Kv2.1; peptide at 0.2 μM): 112%
Activity of Kv2.1 with peptide (percentage of the reference compound) (Kv2.1; peptide at 20 μM): 99%
Activity of GABA with peptide, expressed as a percentage of the reference compound (GABA; peptide at 0.2 μM): 99%
Activity of GABA with peptide (percentage of the reference compound) (GABA; peptide at 20 μM): 98%
Activity of Nav1.5 with peptide, expressed as a percentage of the reference compound (Nav1.5; [1]): 104%
Activity of Nav1.5 with peptide, expressed as a percentage of the reference compound (Nav1.5; [2]): 103%
Activity of Nav1.5 with peptide (percentage of the reference compound) (Nav1.5; [1]): 109%
Activity of Nav1.5 with peptide (percentage of the reference compound) (Nav1.5; [2]): 110%
Activity of hERG with peptide, expressed as a percentage of the reference compound (hERG; peptide at 0.2 μM): 104%
Activity of hERG with peptide (percentage of the reference compound) (hERG; peptide at 20 μM): 98%
Activity of Kir2.1 with peptide, expressed as a percentage of the reference compound (Kir2.1; peptide at 0.2 μM): 105%
Activity of Kir2.1 with peptide (percentage of the reference compound) (Kir2.1; peptide at 20 μM): 103%
Activity of Kv1.1 with peptide, expressed as a percentage of the reference compound (Kv1.1; peptide at 0.2 μM): 103%
Activity of Kv1.1 with peptide (percentage of the reference compound) (Kv1.1; peptide at 20 μM): 97%
Activity of Kv1.2 with peptide, expressed as a percentage of the reference compound (Kv1.2; peptide at 0.2 μM): 120%
Activity of Kv1.2 with peptide (percentage of the reference compound) (Kv1.2; peptide at 20 μM): 104%
Activity of Kv1.3 with peptide, expressed as a percentage of the reference compound (Kv1.3; peptide at 0.2 μM): 107%
Activity of Kv1.3 with peptide (percentage of the reference compound) (Kv1.3; peptide at 20 μM): 89%
Activity of Nav1.7 with peptide, expressed as a percentage of the reference compound (Nav1.7; [3]): 108%
Activity of Nav1.7 with peptide, expressed as a percentage of the reference compound (Nav1.7; [4]): 110%
Activity of Nav1.7 with peptide (percentage of the reference compound) (Nav1.7; [3]): 94%
Activity of Nav1.7 with peptide (percentage of the reference compound) (Nav1.7; [4]): 114%
Activity of NR2A with peptide, expressed as a percentage of the reference compound (NR2A; peptide at 0.2 μM): 89%
Activity of NR2A with peptide (percentage of the reference compound) (NR2A; peptide at 20 μM): 87%
Activity of NR2B with peptide, expressed as a percentage of the reference compound (NR2B; peptide at 0.2 μM): 77%
Activity of NR2B with peptide (percentage of the reference compound) (NR2B; peptide at 20 μM): 85%
Activity of TRPA1 with peptide, expressed as a percentage of the reference compound (TRPA1; peptide at 0.2 μM): 131%
Activity of TRPA1 with peptide (percentage of the reference compound) (TRPA1; peptide at 20 μM): 112%
Activity of TRPV1 with peptide, expressed as a percentage of the reference compound (TRPV1; peptide at 0.2 μM): 112%
Activity of TRPV1 with peptide (percentage of the reference compound) (TRPV1; peptide at 20 μM): 79%
